Assay results from patent US8993248B2, “Truncated human vitamin D binding protein and mutation and fusion thereof and related materials and methods of use” (Abbott Laboratories, priority 2011, dated 2015).

How the values were obtained:
[1] = biological target: T1, yeast surface displayed hDBP3 (Homo sapiens, UniProt P02774); assay: Inhibition assay of free vitamin Ds on yeast surface displayed hDBP3; assay type: binding; details: for Ki: free vitamin D as inhibitor, yeast surface displayed hDBP3
T1 construct: made in house; host or cells: yeast (surface display, pYD vector)
T1 sequence (P02774 17-227): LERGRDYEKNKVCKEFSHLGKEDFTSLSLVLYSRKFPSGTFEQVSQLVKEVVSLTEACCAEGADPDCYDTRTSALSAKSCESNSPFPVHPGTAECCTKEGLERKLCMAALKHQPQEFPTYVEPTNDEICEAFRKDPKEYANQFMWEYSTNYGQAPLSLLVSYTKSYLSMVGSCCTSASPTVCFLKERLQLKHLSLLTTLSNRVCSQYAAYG
Experimental: Binding affinity of the hDBP3 truncate to vitamin D2, vitamin D3, 25-hydroxy vitamin D2, and 25-hydroxy vitamin D3 was determined.

[2] = biological target: T2, hDBP4-hFc 3-6 protein coated on microparticles (Homo sapiens, UniProt P02774, S92A/S95A); assay: Effect of displacement agent on microparticle DBP assay on the Abbott ARCHITECT instrument; assay type: binding; details: ANSA-present versus ANSA-free; FIG. 16
T2 construct: made in house
T2 sequence (P02774 with tags, fused parts or gaps S92A/S95A): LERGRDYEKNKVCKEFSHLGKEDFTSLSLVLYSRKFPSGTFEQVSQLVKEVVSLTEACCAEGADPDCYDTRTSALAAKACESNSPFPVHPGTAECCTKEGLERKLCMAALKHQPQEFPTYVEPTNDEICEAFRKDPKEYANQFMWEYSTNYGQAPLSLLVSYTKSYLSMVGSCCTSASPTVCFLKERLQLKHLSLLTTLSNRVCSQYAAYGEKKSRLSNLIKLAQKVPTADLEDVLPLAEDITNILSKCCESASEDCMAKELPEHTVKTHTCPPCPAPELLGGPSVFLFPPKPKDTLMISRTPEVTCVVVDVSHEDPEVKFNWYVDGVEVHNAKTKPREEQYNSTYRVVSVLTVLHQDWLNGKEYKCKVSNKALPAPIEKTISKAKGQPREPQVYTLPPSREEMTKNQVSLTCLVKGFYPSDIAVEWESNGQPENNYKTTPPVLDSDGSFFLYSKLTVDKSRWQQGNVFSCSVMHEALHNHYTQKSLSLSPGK
Experimental: For this study hDBP4-hFc 3-6 protein was coated on microparticles and binding was assessed on the Abbott ARCHITECT instrument to study the effect of adding a non-competitive displacement agent comprising 8-anilino-1-napthalenesulfonic acid ammonium salt (ANSA). ANSA separates any vitamin D metabolite in the sample from vitamin D binding protein to which the vitamin D metabolite is bound, was investigated. Microparticle diluent was used to remove ANSA in one condition (ANSA-free) but not the other (ANSA-present).

[3] = Reactivity of hDBP-hFc fusion proteins to 25-hydroxy vitamin D3-3-biotin (ELISA); assay type: binding; details: fusion protein produced as a dimer by HEK 293F transient transfection
Excerpt: The hDBP3 open reading frame (ORF) was amplified by PCR and linked to hFc, which contained a short hinge region with the first six amino acids deleted (to increase secretion), through SOEing (splicing by overlapping extension) PCR. The fusion protein ORF was cloned in pBOS vector (acquired from Abbott Bioresearch Center, Worcester, Mass.) through Nru I/Not I restriction digestion. Secretion of the fusion protein was directed by IgG heavy chain secretion signal peptide. The fusion protein was produced as a dimer by human embryonic kidney (HEK) 293F transient transfection. However, its reactivity to 25-hydroxy vitamin D3-3-biotin was weak.
The hDBP4 ORF was amplified from the pYD vector and linked to hFc through SOEing PCR. The fusion protein ORF was cloned in pBOS vector through Nru I/Not I restriction digestion. Secretion of the fusion protein was directed by IgG heavy chain secretion signal peptide. The fusion protein was produced as a dimer by HEK 293F transient transfection. Its reactivity to 25-hydroxy vitamin D3-3-biotin was confirmed by ELISA.
The hDBP3 mutant 3-6 was amplified from a pYD vector. The hFc with 56 amino acids from hDBP4 on its N-terminus was amplified from pBOS hDBP4-hFc. The two fragments were linked together through SOEing PCR. The resulting DNA vector was named pBOS hDBP4-hFc 3-6, which contained the two point mutations (S76A, S79A). […]

[4] = Storage stability of the protein by SDS-PAGE; assay type: physicochemical; details: protein expressed from HEK293 cells; room temperature, 2-8° C. and 37° C.; day 0, 3, 5, 7
Experimental: The hDBP4-hFc 3-6 protein expressed from HEK293 cells was tested for stability. hDBP4-hFc 3-6 protein (about 100 μl of 0.5 mg/ml) was stored at room temperature, 2-8° C., and 37° C. A sample of about 20 μl of hDBP4-hFc 3-6 was taken at day 0, 3, 5, and 7, mixed with 20 μl reduced 2× Laemmli sample buffer, and stored at 2-8° C. until SDS-PAGE gel analysis.

[5] = Ligand titration of yeast surface displayed hDBP truncates; assay type: binding, human; details: for Binding to the ligand 25-hydroxy vitamin D3-3-biotin, in words: compared to full-length hDBP; for EC50: yeast surface displayed hDBP GC1S constructs, ligand 25-OH vitamin D3-3-biotin, read-out: Ag50 (antigen concentration at 50% of maximal binding signal)
Experimental: A total of five hDBP truncates and the full-length hDBP (Table I) were cloned into pYD yeast display vector (Invitrogen) by polymerase chain reaction (PCR) and Nco I/Xho I restriction digestion.
Binding affinity to 25-hydroxy vitamin D3-3-biotin of each construct was measured by ligand titration (Table II). The Ag50 is the value (antigen concentration) generated at 50% of maximal binding signal, thus translating into the highest affinity. This testing was performed similar to that detailed in Friguet et al., J. Immunolog. Methods, 77:305-319 (1985).

[6] = Screen of the yeast-displayed hDBP3 mutation library (MACS/FACS, equilibrium competition staining); assay type: binding, human; details: relative to yeast surface-displayed hDBP3
Excerpt: The library was screened by one round of Magnetic Activated Cell Sorting (MACS) and two rounds of Fluorescence Activated Cell Sorting (FACS) with equilibrium competition staining. […] Mutant 3-6 contained two point mutations (S76A, S79A). Plasmid DNA of this clone was isolated.

[7] = biological target: G-actin; details: read-out: Binding affinity for G-actin; cited from earlier work

## C=C1CC[C@H](O)C/C1=C/C=C1\CCC[C@]2(C)[C@@H]([C@H](C)/C=C/[C@H](C)C(C)(C)O)CC[C@@H]12 [25-hydroxy Vitamin D2]
[1]
  Ki: 6.4 nM

## C=C1CC[C@H](O)C/C1=C/C=C1\CCC[C@]2(C)[C@@H]([C@H](C)CCCC(C)(C)O)CC[C@@H]12 [25-hydroxy Vitamin D3]
[1]
  Ki: 3.8 nM

## N.O=S(=O)(O)c1cccc2cccc(Nc3ccccc3)c12 [ANSA, 8-anilino-1-napthalenesulfonic acid ammonium salt]
[2]
  Effect on binding of vitamin D and tracer to DBP on the solid phase: disturbed the binding of vitamin D from the sample and tracer to the DBP on the solid phase

## C=C1CC[C@H](O)C/C1=C/C=C1\CCC[C@]2(C)[C@@H]([C@H](C)/C=C/[C@H](C)C(C)C)CC[C@@H]12 [Vitamin D2]
[1]
  Ki: 1390 nM

## C=C1CC[C@H](O)C/C1=C/C=C1\CCC[C@]2(C)[C@@H]([C@H](C)CCCC(C)C)CC[C@@H]12 [Vitamin D3]
[1]
  Ki: 2970 nM

## hDBP4-hFc 3-6: hDBP3 mutant 3-6 (S76A, S79A) plus 56 amino acids of hDBP4 fused to hFc, SEQ ID NO:10; dimer
[3]
  Reactivity to 25-hydroxy vitamin D3-3-biotin: higher than wild-type fusion protein
[4]
  Degradation on storage (SDS-PAGE 4-20%): no degradation

B1: hDBP3: hDBP truncate: domain I plus first α-helix of domain II (amino acids 1-211), SEQ ID NO:12 (protein, listed as Homo sapiens)
chain: LERGRDYEKNKVCKEFSHLGKEDFTSLSLVLYSRKFPSGTFEQVSQLVKEVVSLTEACCAEGADPDCYDTRTSALSAKSCESNSPFPVHPGTAECCTKEGLERKLCMAALKHQPQEFPTYVEPTNDEICEAFRKDPKEYANQFMWEYSTNYGQAPLSLLVSYTKSYLSMVGSCCTSASPTVCFLKERLQLKHLSLLTTLSNRVCSQYAAYG
[5]
  Binding to the ligand 25-hydroxy vitamin D3-3-biotin, in words: bound to the ligand with similar affinity to the full-length hDBP
  EC50: 83 nM
[1]
  Binding preference among vitamin D2, vitamin D3, 25-hydroxy vitamin D2 and 25-hydroxy vitamin D3: preferentially bound to hydroxylated vitamin D213

B2: 3-6: hDBP3 clone with two point mutations (S76A, S79A), SEQ ID NO:2 (protein, listed as Homo sapiens)
chain: LERGRDYEKNKVCKEFSHLGKEDFTSLSLVLYSRKFPSGTFEQVSQLVKEVVSLTEACCAEGADPDCYDTRTSALAAKACESNSPFPVHPGTAECCTKEGLERKLCMAALKHQPQEFPTYVEPTNDEICEAFRKDPKEYANQFMWEYSTNYGQAPLSLLVSYTKSYLSMVGSCCTSASPTVCFLKERLQLKHLSLLTTLSNRVCSQYAAYG
[6]
  Increase in affinity to 25-hydroxy vitamin D3-3-biotin: six-fold increase in affinity

B3: hDBP4: hDBP truncate: domain I plus about half of domain II, 56 amino acids longer than hDBP3, SEQ ID NO:14 (protein, listed as Homo sapiens)
chain: LERGRDYEKNKVCKEFSHLGKEDFTSLSLVLYSRKFPSGTFEQVSQLVKEVVSLTEACCAEGADPDCYDTRTSALSAKSCESNSPFPVHPGTAECCTKEGLERKLCMAALKHQPQEFPTYVEPTNDEICEAFRKDPKEYANQFMWEYSTNYGQAPLSLLVSYTKSYLSMVGSCCTSASPTVCFLKERLQLKHLSLLTTLSNRVCSQYAAYGEKKSRLSNLIKLAQKVPTADLEDVLPLAEDITNILSKCCESASEDCMAKELPEHTV
[5]
  Binding to the ligand 25-hydroxy vitamin D3-3-biotin, in words: retains binding affinity
  EC50: 95 nM

B4: DBP: Naturally occurring triple-domain, monomeric serum glycoprotein that binds and transports vitamin D (protein, UniProt P02774 17-474, looked up)
Vitamin D-binding protein: LERGRDYEKNKVCKEFSHLGKEDFTSLSLVLYSRKFPSGTFEQVSQLVKEVVSLTEACCAEGADPDCYDTRTSALSAKSCESNSPFPVHPGTAECCTKEGLERKLCMAALKHQPQEFPTYVEPTNDEICEAFRKDPKEYANQFMWEYSTNYGQAPLSLLVSYTKSYLSMVGSCCTSASPTVCFLKERLQLKHLSLLTTLSNRVCSQYAAYGEKKSRLSNLIKLAQKVPTADLEDVLPLAEDITNILSKCCESASEDCMAKELPEHTVKLCDNLSTKNSKFEDCCQEKTAMDVFVCTYFMPAAQLPELPDVELPTNKDVCDPGNTKVMDKYTFELSRRTHLPEVFLSKVLEPTLKSLGECCDVEDSTTCFNAKGPLLKKELSSFIDKGQELCADYSENTFTEYKKKLAERLKAKLPDATPTELAKLVNKHSDFASNCCSINSPPLYCDSEIDAELKNIL
[7]
  Kd: ~10 nM

B5: hDBP0 (Full-Length): Full-length human vitamin D binding protein, allele GC1S; domains I, II, III of 191, 187, 80 amino acids (protein, UniProt P02774 17-474, looked up)
Vitamin D-binding protein: LERGRDYEKNKVCKEFSHLGKEDFTSLSLVLYSRKFPSGTFEQVSQLVKEVVSLTEACCAEGADPDCYDTRTSALSAKSCESNSPFPVHPGTAECCTKEGLERKLCMAALKHQPQEFPTYVEPTNDEICEAFRKDPKEYANQFMWEYSTNYGQAPLSLLVSYTKSYLSMVGSCCTSASPTVCFLKERLQLKHLSLLTTLSNRVCSQYAAYGEKKSRLSNLIKLAQKVPTADLEDVLPLAEDITNILSKCCESASEDCMAKELPEHTVKLCDNLSTKNSKFEDCCQEKTAMDVFVCTYFMPAAQLPELPDVELPTNKDVCDPGNTKVMDKYTFELSRRTHLPEVFLSKVLEPTLKSLGECCDVEDSTTCFNAKGPLLKKELSSFIDKGQELCADYSENTFTEYKKKLAERLKAKLPDATPTELAKLVNKHSDFASNCCSINSPPLYCDSEIDAELKNIL
modifications: allele GC1S
notes: domains I, II, III of 191, 187, 80 amino acids
[5]
  EC50: 65 nM
